Experimental data published in US20200132689A1 (ARIZONA BOARD OF REGENTS ON BEHALF OF THE UNIVERSITY OF …, published 2020).

Molecular target: T1, nicotinamide phosphoribosyltransferase (NAMPT) (Homo sapiens (Human), UniProt P43490 1-491)
T1 construct: also called PBEF; visfatin
Test: method not stated

T1 sequence (P43490 whole entry): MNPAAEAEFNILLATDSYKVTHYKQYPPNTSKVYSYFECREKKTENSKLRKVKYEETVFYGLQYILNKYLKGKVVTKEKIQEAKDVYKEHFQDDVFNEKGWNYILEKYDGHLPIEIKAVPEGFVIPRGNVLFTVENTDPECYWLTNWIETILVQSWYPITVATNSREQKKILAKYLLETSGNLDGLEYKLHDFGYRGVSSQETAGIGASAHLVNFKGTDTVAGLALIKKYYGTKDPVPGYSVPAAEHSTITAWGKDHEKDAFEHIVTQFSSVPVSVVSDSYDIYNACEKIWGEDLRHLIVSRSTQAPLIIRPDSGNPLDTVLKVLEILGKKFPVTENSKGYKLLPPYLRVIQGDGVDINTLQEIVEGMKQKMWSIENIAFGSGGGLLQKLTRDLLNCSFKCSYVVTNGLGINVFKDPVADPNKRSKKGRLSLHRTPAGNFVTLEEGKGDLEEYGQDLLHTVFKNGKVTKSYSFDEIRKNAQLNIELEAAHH

Row | Kd [nM] | Binder
1 | 6 | murine anti-NAMPT mAb AL303 (antibody, V domains shown) VH: QVQLQQPGADLVKPGASVKLSCKASGYTFTSYWMQWVKQRPGQGLEWIGEIDPSNSYTNYNQKFRGKATLTVDPSSSTAYMQLSSLTSEDSAVYYCARGGYWGQGTTLTVSS VL: DIVMTQAAFSNPVTLGTSASISCRSSKSLLHSNGITYLYWYLQKPGQSPQLLIYQMSNLASGVPDRFSSSGSGTDFTLRISRVEAEDVGVYYCVQNLELPYTFGGGTKLEIK
2 | 9 | murine anti-NAMPT mAb AL310 (antibody, V domains shown) VH: QVQLQQSGAESVMPGASVKLSCKASGYTFTSYWMHWVKQRPGQGLEWIGEIDPSDSYTNYNQKFKGKSTLTVDKSSSTAYMQLSSLTSEDSAVYYCAKSNYVVPWYFDVWGTGTTVTVSS VL: DIVMTQAAFSNPVTLGTSASISCRSSKSLLHSNGITYLYWYLQKPGQSPQLLIYQMSNLASGVPDRFSSSGSGTDFTLRISRVEAEDVGVYYCAQNLELPWTFGGGTKLEIK
